{"source": "paper PMC11963547", "target": "penicillin-binding protein 2a (S. aureus (endogenous in strain USA300))", "test": "cross-linking + native gel or EMSA", "data": [{"substance": "penicillin-binding protein 2a (natural protein)", "values": [{"measurement": "stoichiometry N", "result": 3}]}]}
